This passage reports binding result and Kd results from PMC9595545, “Nonamer dependent RAG cleavage at CpGs can explain mechanism of chromosomal translocations associated to lymphoid cancers”.

One may read the Kd as a measure of binding affinity in units of concentration.

The target in data set [1] is T1, RAG1 nonamer binding domain (NBD) (UniProt P15919 389-456).
T1 sequence: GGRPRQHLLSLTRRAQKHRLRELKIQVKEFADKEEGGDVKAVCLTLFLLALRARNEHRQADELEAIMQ
Nature of the data set: EMSA; RAG EMSA: 22.5 mM MOPS-KOH pH 7.0, 20% DMSO, 2.2 mM DTT, 50 mM K-glutamate, 2% glycerol, 100 ng/ml BSA, 2 h, 25 C; NBD EMSA as in earlier work; BLI: SAX sensors, NBD 0.36-2.22 nM, 1:1 fit, buffer not stated. The following applies: protein: recombinant, tags: His (pET28a, Ni-NTA), chain copies: 2, T/G mismatch. On the technique in general: Mobility shift assays separate free from complexed probe on a gel.

Data set [2] addresses T1, RAG1 nonamer binding domain (NBD). Kind of data set: BLI; RAG EMSA: 22.5 mM MOPS-KOH pH 7.0, 20% DMSO, 2.2 mM DTT, 50 mM K-glutamate, 2% glycerol, 100 ng/ml BSA, 2 h, 25 C; NBD EMSA as in earlier work; BLI: SAX sensors, NBD 0.36-2.22 nM, 1:1 fit, buffer not stated. The following applies: protein: recombinant, tags: His (pET28a, Ni-NTA), chain copies: 2, biotin (BLI).

B1: MTCII (NM88/NM89) (dsDNA)
DNA 1: TGCCATTGGCGTGAATGAGGGGAAGCCCCTCCTGACAGCTGGATGGTAGGACAAAGCCCTCTA
DNA 2: TAGAGGGCTTTGTCCTACCATCCAGCTGTCAGGAGGGGCTTCCCCTCGTTCACGCCAATGGCA
With B1, the binding result in data set [1] (label: 5'-32P on NM88) is “binds”.

B2: KI (AP66/AP67) (dsDNA)
DNA 1: GAAAAAAGTGGCTCCCTGCCCAAGTATCCCTGTAAAACAAAAACCAAAAG
DNA 2: CTTTTGGTTTTTGTTTTACAGGGATACTTGGGCGGGGAGCCACTTTTTTC
In the case of B2, in data set [2] (label: 5'-32P on AP66 (EMSA), T/G mismatch), the Kd was 0.36 nM.

B3: FI (HK5/HK6) (dsDNA)
DNA 1: GGCCCTGCTTGACTGTGTCACAACCCCATCCAGTGGCCCTGAACTTGG
DNA 2: CCAAGTTCAGGGCCACTGGATGGGGTTGTGACGCAGTCAAGCAGGGCC
Consider B3, for which, in data set [2] (label: 5'-32P on HK5 (EMSA), T/G mismatch), the Kd was found to be 0.69 nM.

B4: 12RSS (AKN1/AKN2) (dsDNA)
DNA 1: GATCAGCTGATAGCTACCACAGTGCTACAGACTGGAACAAAAACCCTGCT
DNA 2: TAGCAGGGTTTTTGTTCCAGTCTGTAGCACTGTGGTAGCTATCAGCTGAT
With B4, the Kd in data set [2] (label: 5'-32P on AKN1 (EMSA)) is 0.7 nM.

B5: MTCIII (NM90/NM91) (dsDNA)
DNA 1: TCACGCCAATGGCAGTGCCAGGTGTTCAGGGAGCTCTTGCGTTCAAACCACGA
DNA 2: TCGTGGTTTGAACGCAAGAGCTCCCTGAACACCTGGCGCTGCCATTGGCGTGA
Regarding B5, the binding result in data set [1] (label: 5'-32P on NM90) is “binds”.

B6: MTCI (NM50/NM51) (dsDNA)
DNA 1: TTCAGGGAGCTCTTGTGTTCAAACCACGAAGAAGACGCAGTTTAATCTCA
DNA 2: TGAGATTAAACTGCGTCTTCTTCGTGGTTTGAACGCAAGAGCTCCCTGAA
With B6, the binding result in data set [1] (label: 5'-32P on NM50) is on record as “binds”.

B7: MTCIV (NM92/NM93) (dsDNA)
DNA 1: GGAGGGGCTTCCCCTTGTTCACGCCAATGGCAGCGCCAGGTGTTCAGGGAGCTCTTGCGTTCAAACCACGA
DNA 2: TCGTGGTTTGAACGCAAGAGCTCCCTGAACACCTGGCGCTGCCATTGGCGTGAACGAGGGGAAGCCCCTCC
In the case of B7, the binding result in data set [1] (label: 5'-32P on NM92) is listed as “binds”.
